Measured values reported in the supplement of paper PMC10126150.
± gives the standard deviation of the averaged measurements.

test system: ATP; test: switch fluorescence ratio, 500 uM ATP over buffer (Cy3 cluster intensity, sum of 5 cycles each) (fold (ratio)); higher = stronger signal-on switching upon ATP binding; sequences stand for … in TCGTCGGCAGCGTCAGATGTGTATAAGAGACAGTTTTTTTTTTTTTTTTTTTTTTTTT…TC; settings: aptamer strand: ATP DNA aptamer (quencher-CACCTGGGGGAGTATTGCGGAGGAAGG + anchor), 100 nM annealed; ATP concentration: 500 uM
Method in brief: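 Cy3-labelled switching-strand clusters on a modified Illumina MiSeq flow-cell were annealed to 100 nM quencher-labelled ATP aptamer and imaged first in selection buffer, then after 15 min with 500 uM ATP at 22 °C. NaOH stripping and re-annealing separated each of five buffer/ATP cycles, and clusters outside 100-1000 RFU were excluded. The fluorescence ratio sums target-cycle Cy3 intensity over buffer-cycle Cy3 intensity per cluster and averages it per switch-domain sequence.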
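Also: ATP exposure 15 min at 22 °C before imaging.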

| Sequence | switch fluorescence ratio |
| --- | --- |
| TCTATTGTAA | 0.991 ± 0.049 |
| GAGGTATGTT | 0.999 ± 0.02 |
| TTAAATTTGC | 1.03 ± 0.011 |
| TATTAGTAAT | 1.002 ± 0.0032 |
| GAGAGCAAGT | 1.14 ± 0.034 |
| GAGTCTGGGG | 0.978 ± 0.049 |
| TTTTATTTA | 0.9701 ± 0.0072 |
| TTTTAGAGTT | 0.982 ± 0.013 |
| ATGCAATGGA | 1 ± 0.064 |
| TTCTTGATTT | 1 ± 0.035 |
| GCGTGTGGTG | 1.02 ± 0.043 |
| TGGTGAGGGG | 1.12 ± 0.24 |
| CACGCGTGGT | 0.996 ± 0.019 |
| CCGGCTTGCA | 1.13 ± 0.017 |
| ATTATACTGG | 1 ± 0.033 |
| CCATGTATAA | 1.02 ± 0.016 |
| GAGGGCTAGG | 0.997 ± 0.023 |
| TGAGGAAAAG | 1.006 ± 0.0065 |
| TTTACGTAAA | 1.08 ± 0.11 |
| AATCGAGTTG | 0.985 ± 0.013 |
| CGTGGATGGT | 0.9933 ± 0.0032 |
| TTGATAAAGG | 1.02 ± 0.026 |
| TCGGATCATT | 0.9775 ± 0.0039 |

| Sequence | switch fluorescence ratio |
| --- | --- |
| TAAAATGCAT | 0.979 ± 0.024 |
| ACTGTTAGTA | 1.01 ± 0.011 |
| GTTTGGCATA | 1.14 ± 0.19 |
| TTAAGGGAAT | 1 ± 0.011 |
| GCGGAGTCGG | 0.996 ± 0.053 |
| TTCAGCTGTT | 1.01 ± 0.011 |
| GACGGGGCGT | 0.989 ± 0.013 |
| TGAAGGGAAA | 1 ± 0.051 |
| TATTTGAGA | 1.01 ± 0.019 |
| CAAGTTATAC | 1.38 ± 0.15 |
| GCGGGGGGCC | 1.05 ± 0.1 |
| GTAATAACGG | 1.034 ± 0.0033 |
| CGGTTTTTTG | 0.964 ± 0.014 |
| GGGGGTGGTG | 0.988 ± 0.038 |
| GGGGACGAGG | 0.999 ± 0.028 |
| TCGTAGTGGC | 1.11 ± 0.1 |
| TTGTATTCTT | 1.04 ± 0.088 |
| TTTTTCGATA | 1.06 ± 0.029 |
| AGCAATATGG | 2.49 ± 0.051 |
| GCTAATATGG | 0.998 ± 0.044 |
| GCTTGCCGGT | 1 ± 0.037 |
| GCAGGTGGAG | 1.02 ± 0.06 |
| GGGTGGTAGG | 1 ± 0.028 |

| Sequence | switch fluorescence ratio |
| --- | --- |
| GTTGGAGGCT | 0.989 ± 0.096 |
| AGCCGGCCTG | 1.02 ± 0.017 |
| CATGTGAAGG | 0.966 ± 0.037 |
| AGAGAGGGTG | 1.06 ± 0.048 |
| TTTAATTAAT | 0.983 ± 0.023 |
| AATTAGTTAT | 0.9835 ± 0.0033 |
| ATGTTTTCTC | 0.993 ± 0.013 |
| TTTAGTTGCC | 0.984 ± 0.058 |
| ACCTGACTTG | 1.06 ± 0.014 |
| ATTATATGGT | 0.98 ± 0.029 |
| AAGTTGAGGG | 0.975 ± 0.035 |
| GGGGAGGGGG | 0.999 ± 0.044 |
| TTTACCTAGA | 0.997 ± 0.025 |
| AATTTTGGTA | 0.994 ± 0.016 |
| GAAATTTAAG | 1.02 ± 0.035 |
| GAGTGCGGGA | 1.02 ± 0.044 |
| GGTCGGGAGA | 0.96 ± 0.039 |
| GAGGGGGGGC | 1.01 ± 0.07 |
| TGTGAAAGGC | 1.04 ± 0.03 |
| CGAGGGAGTT | 0.986 ± 0.044 |
| TACGGGGCGG | 1.36 ± 0.64 |
| TCGTCGAACG | 0.988 ± 0.04 |
| ATGAGAGGGC | 1.054 ± 0.0092 |

| Sequence | switch fluorescence ratio |
| --- | --- |
| CATTGTTGTT | 1.01 ± 0.0098 |
| TTAAAGTGAA | 0.988 ± 0.024 |
| AATGGATGTG | 0.991 ± 0.013 |
| TTCGGGCGCG | 0.952 ± 0.021 |
| GTTGCTAGTG | 0.973 ± 0.024 |
| TTCCGGTGTT | 1.05 ± 0.079 |
| CCGGAGTTGG | 3.49 ± 0.11 |
| TTTGGTGATT | 0.982 ± 0.025 |
| AAGGCTATGG | 0.988 ± 0.027 |
| TAGGGTAAGT | 0.9905 ± 0.0089 |
| GGTTACTGGA | 1.02 ± 0.018 |
| ACTGCTGGGA | 1.01 ± 0.015 |
| TGATGGGAGC | 0.982 ± 0.014 |
| TGGACAAATT | 1.02 ± 0.022 |
| TCGTGTGTTC | 1.022 ± 0.0047 |
| GTAATGGGGA | 1.02 ± 0.015 |
| CTACATCTTA | 1.02 ± 0.018 |
| CTGGCGAGTA | 1.01 ± 0.016 |
| CCTCATTGGT | 1.026 ± 0.0093 |
| TTGGGATGTG | 0.986 ± 0.053 |
| ACCCTGGACC | 1.066 ± 0.0086 |
| TTACAGTTCA | 1.026 ± 0.0058 |
| CGCGGGTTGC | 1.06 ± 0.042 |

| Sequence | switch fluorescence ratio |
| --- | --- |
| AAAGGACGGG | 1.017 ± 0.0031 |
| TAGACTTTAT | 1.02 ± 0.029 |
| TCGGTTAATG | 1 ± 0.042 |
| TTAATTGGGG | 1.06 ± 0.1 |
| TATGGAGGTT | 0.969 ± 0.0074 |
| TGGTAAATGT | 0.97 ± 0.013 |
| CGAGCTTCGT | 1.01 ± 0.034 |
| AAGAAAGGGA | 1.03 ± 0.038 |
| AAAGGGAGGG | 1 ± 0.02 |
| TGCCTCTTTT | 0.9886 ± 0.006 |
| TTAGGTGGGC | 1.08 ± 0.021 |
| AGGGGTAGGC | 0.9893 ± 0.0036 |
| TATGGTGCCT | 1.02 ± 0.082 |
| GGTGTTTCAT | 0.973 ± 0.053 |
| GAGAGGAAAT | 1.004 ± 0.0059 |
| ATAGGGCCGC | 1.02 ± 0.034 |
| GCGGATTGTG | 1.032 ± 0.0053 |
| TTTTTCGAGG | 0.997 ± 0.025 |
| AGAAGTGATA | 0.976 ± 0.023 |
| GATGCGGGGA | 1.01 ± 0.018 |
| TAGAATCGTT | 0.97 ± 0.05 |
| CTGTTACTGT | 0.986 ± 0.024 |
| GTGTCAGTTG | 0.93646 ± 0.00087 |

| Sequence | switch fluorescence ratio |
| --- | --- |
| CACGGGGCGC | 0.977 ± 0.046 |
| CTTGTGAAA | 1.009 ± 0.0082 |
| TTATTTGGTA | 0.986 ± 0.044 |
| ATTACATGTA | 0.9871 ± 0.0098 |
| TTCTCTATTT | 0.983 ± 0.028 |
| GTCGCTGTGG | 1.04 ± 0.0021 |
| GCTGGGCATT | 0.99173 ± 0.00022 |
| TGTAAGCCGG | 1.05 ± 0.07 |
| GCAGTATGAG | 0.99 ± 0.021 |
| TAAGGTAAGG | 1.01 ± 0.031 |
| GATTACTCTG | 1.03 ± 0.026 |
| TGACGGGGTA | 1.04 ± 0.12 |
| CAGGGGGAAT | 1.1 ± 0.11 |
| GTGGGACGGG | 1.03 ± 0.056 |
| GGTTGGGTG | 1.03 ± 0.013 |
| CACGGGGGTT | 1 ± 0.018 |
| CCGGATTGTC | 1.13 ± 0.044 |
| CCGCACTAAG | 3.94 ± 0.74 |
| CGGGCTTAAA | 1 ± 0.018 |
| AGACCTGGCC | 1.14 ± 0.011 |
| TGGTTTACCA | 0.9936 ± 0.0041 |
| TTATAGAATG | 0.985 ± 0.038 |
| CGGGGTGCCG | 0.98847 ± 0.00081 |

| Sequence | switch fluorescence ratio |
| --- | --- |
| TACGGTTTGG | 0.988 ± 0.056 |
| AGGTGAGGGC | 1.02 ± 0.015 |
| CAATTTCCCG | 1.01 ± 0.02 |
| TTGGGTATGC | 0.99 ± 0.046 |
| TTACGATGTG | 1.018 ± 0.0091 |
| GAATATCTGG | 0.97 ± 0.011 |
| CTGGTGGCCG | 1 ± 0.028 |
| ATTCATAGGT | 0.992 ± 0.014 |
| AATGGGTATC | 0.9923 ± 0.0088 |
| GTGCTAAGAG | 0.969 ± 0.043 |
| TTTTTCAATC | 1.07 ± 0.035 |
| TCTAAATCTT | 1.01 ± 0.011 |
| GATGATTCTG | 1.001 ± 0.0056 |
| GGGGGATGAT | 0.9889 ± 0.007 |
| TTTAAGTGGT | 0.998 ± 0.018 |
| TTATTCTGTT | 0.976 ± 0.047 |
| CCAGGAACTC | 1.02 ± 0.025 |
| TTACGGGAAT | 1.08 ± 0.1 |
| GCTGTTGTCG | 0.974 ± 0.052 |
